This note sets out measurements from patent US20220226493A1.

This assay deals with CD117 on Kasumi-1 cells, P10721. Description: cell-based or functional assay.

B1: CK6-SET0207 (CK6 with Fc modifications D265C H435A) (antibody, V domains shown)
VH: QVQLVQSGAAVKKPGESLKISCKGSGYRFTSYWIGWVRQMPGKGLEWMGIIYPGDSDTRYSPSFQGQVTISAGKSISTAYLQWSSLKASDTAMYYCARHGRGYNGYEGAFDIWGQGTMVTVSS
VL: AIQLTQSPSSLSASVGDRVTITCRASQGISSALAWYQQKPGKAPKLLIYDASSLESGVPSRFSGSGSGTDFTLTISSLQPEDFATYYCQQFNSYPLTFGGGTKVEIK
B1 displayed a % Efficacy (in vitro Kasumi cell killing assay, CellTiter-Glo) of 0%.

B2: CK6-D4 (anti-CD117 antibody CK6 with Fc modification S239C conjugated to calicheamicin) (antibody, DAR 1.72, V domains shown)
VH: B1 VH
VL: B1 VL
B2 returned a % Efficacy (in vitro Kasumi cell killing assay, CellTiter-Glo) of 0%.

B3: CK6-PBD (anti-CD117 antibody CK6 with Fc modification S239C conjugated to PBD) (antibody, DAR 1.7, V domains shown)
VH: B1 VH
VL: B1 VL
As for B3, the % Efficacy (in vitro Kasumi cell killing assay, CellTiter-Glo) was 60.7%.

B4: CK6-DM (anti-CD117 antibody CK6 with Fc modification S239C conjugated to duocarmycin) (antibody, DAR 1.65, V domains shown)
VH: B1 VH
VL: B1 VL
In turn, B4 had a % Efficacy (in vitro Kasumi cell killing assay, CellTiter-Glo) of 0%.

B5: CK6-PNU (anti-CD117 antibody CK6 with Fc modification S239C conjugated to PNU) (antibody, DAR 1.4, V domains shown)
VH: B1 VH
VL: B1 VL
With B5, the % Efficacy (in vitro Kasumi cell killing assay, CellTiter-Glo) came out at 85.7%.
